We go through 17 sequences from a protein production outcome set (Wang et al. 2014).

The data set can be described thus: label from the status in PepcDB records.

Regarding “MKETPRASGATNFILVGLGVIIALLGLLLAAGGVKLAGLGGSWYFLIGGLAMAIAGVLIARRKKAGAWLYAVFLVGTAIWALIDAGLVFWPLFSRLFMFGAIGMVVALVYPLLARANGASAGRGAYGVAGVMAVVLVVAVGNMFVAHPSVAPTGKGPGMTPVETGKEQKDWAHYGNTEGGSRFAALDQINRDNVNKLKVAWTYQTGDVAISDGNGAEDQLTPLQIGSKVFICTPHNNLIALDADTGKELWKNEINAQSKVWQRCRGMAYFDATAAIAQPTQPNSSPITGVSVAAGANCQRRLLTNTIDGRLIAVDADTGEFCQGFGNNGQVDLKAGLGDVPDSYYQLSSAPLMAGTTVVVGGRVADNVQTDMPGGVIRGFDVITGEMRWAFDPGNPEDRQAPQGDKTYVRSTPNSWAPMSYDPAMNTVFLPMGSSSTDIYGVERSKLDHTYGASVLALDATTGNQKWVFQTVHNDLWDFDLPMQPSLIDFTKDDGQSVPAVVIGTKAGQIYVLDRATGKPLTQVDEVPVKPSNIPNEPYSPTQPKSVGMPQIGAQTLTESDMWGATPYDQLLCRIDFKKMRYDGLYTAPGTDLSLSFPGSLGGMNWGSISTDPVHGFIFVNDMRLGLWIQMIPSQNKGGAASGGEALNTGMGAVPLKGTPYAVNKNRFLSVAGIPCQAPPFGTLTAIDMKTRQVAWQVPVGTVEDTGPLGIRMHLPIKIGLPTLGGTLSTQGGLVFIAGTQDFYLRAYDSSNGNEIWKARLPVGSQGGPMTYVSPKTGKQYVVITAGGARQSTDRGDYVISYALP”, the protein production result was “failed”. To “MKEVRIVFQPGEISVPVAAGTTIMEAMNRSGLGEDFPCGGRGKCGKCRVKVREGREDFTAIDEDHLTAQELAEGVRLACATKINRDMMVEMQSPKKLQHHILIDSAARAFHIHPHLVKVFAEIAQPSLSEHKSDWQRLQESLAGLGCSVHDLQAPLSVLRRLPDTLRESTNRVTTIVYGSQVLGVEQGDTTGTLLGMAFDIGTTTIVGYLLDLNSGRELEVVSTLNPQAQYGGDVISRITFAGKEEKGLDTLHQAVTGAMNRLIGEAVDKAGVSRTQLYGISVAANTTMHHLFLGITPRSIGMSPYVSAINQGLVVAPGELGLEINKAGRVFVLPNIAGFVGADTTAVLLASDLEKSDHVTLILDIGTNGEIVLGSKNRMVACSAAAGPAFEGAQITSGMRGADGAIDHISFDHGLSYTVIGNGRPIGICGSALLDGVAGFVELGMINKRGKFLEPEKLTHPSALKLKDRLIKYEETWAFQLVEAGQTRHGRPILITQNDIRELQLAKGAIAAGVRILQEAMGIECEDIKEVLLAGAFGNYLNPHSACVIGLIPRELESRIKTIGNAAGNGAKIALLSAQEFSRAKDLAGGVSFVELGSYPGFNTIFAQNTYFKLDLEHHHHHH” belongs “not failed”. Take “MKEVTPRFVELGQVSAIRTEPEIAYRSNQGVTRQRQQTKVFKLVSTYDKVAVKNAIRAAYRQVFERDLEPYIINSEFTALESKLSNNEINVKEFIEGLGTSELYMKEFYAPYPNTKVIEMGTKHFLGRAPLNQKEIQQYNQILASQGLKAFIGAMVNGMEYLQTFGEDTVPYRRFPTLPAANFPNTERLYNKLEHHHHHH”: the protein production entry is given as “not failed”.

Take “MKEYLTRSNISYFSIGSGTPIIFLHGLSLDKQSTCLFFEPLSNVGQYQRIYLDLPGMGNSDPISPSTSDNVLETLIEAIEEIIGARRFILYGHSYGGYLAQAIAFHLKDQTLGVFLTCPVITADHSKRLTGKHINILEEDINPVENKEYFADFLSMNVIINNQAWHDYQNLIIPGLQKEDKTFIDQLQNNYSFTFEEKLKNINYQFPFKIMVGRNDQVVGYQEQLKLINHNENGEIVLLNRTGHNLMIDQREAVGFHFDLFLDELNSNN”: the protein production result is listed as “not failed”. To “MKFAVAVSGDRVNGPGESEEVQIYETDGGNVRLIEKYSNPALNATAARGVFMLKSALDHGANALVLSEIGSPGFNFIKNKMDVYIVPEMPVADALKLILEGKVSPATAPTHDHGHHH” belongs “not failed”; to “MKFDRHRRLRSSATMRDMVRENHVRKEDLIYPIFVVEKDDVKKEIKSLPGVYQISLNLLESELKEAYDLGIRAIMFFGVPNSKDDIGTGAYIHDGVIQQATRIAKKMYDDLLIVADTCLCEYTDHGHCGVIDDHTHDVDNDKSLPLLVKTAISQVEAGADIIAPSNMMDGFVAEIRRGLDEAGYYNIPIMSYGVKYASSFFGPFRDAADSAPSFGDRKTYQMDPANRLEALRELESDLKEGCDMMIVKPALSYLDIVRDVKNHTNVPVVAYNVSGEYSMTKAAAQNGWIDEERVVMEQMVSMKRAGADMIITYFAKDICRYLDK”, “failed”. As for “MKFEILQQLNAERAARRPAIVVTDTATGAQRLVKAADIAADPLAAELGKQLRMGKSASIEIDGRKLFLNVYAPTAKLVIVGAVHISQALAPLARSLGYDVTVVDPRTAFASPERFPDVPLIAEWPDVALPPLNIDHYTAFVALTHDPKIDDPALLHAFARDCFYIGALGSKKTHAKRLERLKGQGASDADLGRIHAPIGLAIGAVSPSEIAVSIMAEITAALRLPASSKAAAA”, the entry is “failed”; as for “MKFEKRQVYYVVITFAICYAIQAYWGAVSNILTTLHKAIFPFLMGAGIAYIINIVMSVYERLYIKLFKGSRLLMAIKRSVSMILSYATFIGLIVWLFSIVIPDLISSLSSLLVIDTGALAKLVNNLNENKQISEVLNYMGTDKDLVSTLSGYSQQILKQVLSVLTNLLTSVSSIAATLLNVFVSFIFSIYVLANKEQLGRQFNLLIDTYLGSTGKTFHYVRHILHQRFHGFFVSQTLEAMILGSLTVIGMLIFQFPYALTVGVLVAFTALIPVVGAYIGVTIGFILIATESLTEAFLFVLFLILLQQFEGNVIYPKVVGGSIGLPSMWVLMAITIGGALWGILGMLLAVPVAATIYQIVKDHIIKRQTLRNCARTYR”, “failed”; as for “MKFESYDLAPGIKKSLAEAGFNRPTDIQFKSIPPILAGEDVLAIAQTGTGKTAAFVIPVLNTLINVKKSEHTDISCLVMAPTRELAVQISEVFKKIGAYTRLRTVCITGGVEQEAQIAAADYGIDILVATPGRMFDLIYQKHIKITRVKILVLDEADHMLDLGFIKDIQDVKKFLPARHQTLFFSATINEEIKKLAYSLVKNPIRIQIAPKDRVSKNITHSVAFIGMDDKRFFLERLLKEHPESKVIVFVRTQVRADRVQAAMERVGLKSVTMHGGKEQQARDAAMDAFKNGTVHVLIATDISARGIDIAGVEYVVNYDMPEVAENYVHRVGRTGRGVSKGFAISFCSMEEKPVLDEVEEFLGKEINVIEITGKDYDATLDLTEDVNDNWKALLKEADAETTKKYVPKKKKKK”, “failed”. On to “MKFFGEIAERAGVPSVMGEILAGILFGALFLDVETGIITFFAQLGSIFLLFTAGYKEVSLRDLRPAVLVAFIPTLTQLVFAFAFGFMLGKIFNFTFLQSLFMAVALSPTAIGVVIRILIDLNYLSSRPGLVMLSSAVLDDIIAISLLSLIVTFARFNRAPSALAVLTISGKILLFLLIMYILGKYFFPRLFVHAQKMHAKEAVFSLVVMTALFSSYLAELFELHATIGAFIGGMLISEIPLAKIPDVQSKVEGLAYGILIPLFFAFIGYSIDLYALVKAGIFVPVVTLLALSGKLIGGFIGSKAIGFNFCESLAFGAGVMPRAGIELVMLTIGRGIGIIGEEIFSAMVFMVIVSILISPSALKFAIQAERKNKTGNELKVG”, for which the protein production result is “failed”.

As to “MKFGETFDMVLSDVRGKKIHASVKREHLNRFERLIVPGEWRAIENFGLTYATGQFKATDHRYKMGFMAQTRVVRIDPLSDSYFLSLTAFNDVLNGGLNQNYLIDVVGQIVNVGEMETIDVHNQPTKKIDFELRDQKDERLPCTLWGSFAEQVFTACEAANGEMIICLVRFAKLKTYKDVRSISNAFNTSQILINPDLPEILEFKDALPKDCLALTLIESKPKSKIDEFPTGDFYLQFAKKTIKEVSEMFDVGRVKVLCTIYDIDRDWSWYYIVCKKCNKKVTKVVMTSLKAQLWCETCRAPITNVLARYKLHVKVMDSSGEMKLMLFDAMSSEIVGCPANNLLDGSFDEIEDPDILPDSIKNLIGKTYQYLVCVENENKRYQMHDSIDQCSLMLTYSEEPSEATTPSSKRSSDTSISPADNFSTTKKLCLDSIKIVKIKQEMVEKNNEAKVVGEKLNF”, the protein production entry is on record as “failed”.

Take “MKFGKRHYRPQVDQMDCGVASLAMVFGYYGSYYFLAHLRELAKTTMDGTTALGLVKVAEEIGFETRAIKADMTLFDLPDLTFPFVAHVLKEGKLLHYYVVTGQDKDSIHIADPDPGVKLTKLPRERFEEEWTGVTLFMAPSPD”: the protein production entry is given as “not failed”.

Take “MKFKNILFDFDDTLVDFYDAEKKAFYNLAQKYNHQPTQQDFEHFKKVNQAHWEAFQQNKLTKDEVLSQRFINYFNDYQIHVNGKEADKCFRAELAMAPVKLFDHTLEVIQQLKLNHSLYIVTNGVTETQLRRIAQTQFNEIFQDVFISEKAGFQKPMTEFFDFVFEHIGENNRNQTLIVGDSLTSDILGGKNANISTCWFNIRQKENHTSIQPDYIINDLSEMIRIVE”: the protein production entry is reported as “failed”. As for “MKFLGRGRELARFKEELDAARPSLVILYGRRRVGKSRFLRELGKSRKEIYFQATRVSSLLNLEQFKIEVANILGALPVLESLPSWEGVFYYIAEHTRNNPGLLITIDEFPYLLDGDPALPSILQKFWDSGAPADGGLKLILCGSSISQMQDLLAERNPLYGRQTLSLDMKQLPLTDVARFFPKYDAEAIISTYAIFGGIPHYLQLFNPDVPLKDNVVRLLLTETGTLVDEPNTLLQTELHEPGFYSSVLAAIADGCNTTSEIASRLGVKVEKITSYAAKLVALHLISNTKSLDVDEKVRNRRFRLDDSLISFWHRFVRPSLTAISGGFGEEVYRQVVAPGFSEYMGIAFEAIALEYARIHIQEKLGLPAKELGQIWGHSDFDIDVAGRLLNGEYFYGDCKWTNADIDMGHLRQLRERSERTRYGRGTAGKHFLLFSKAGFSTDLIVFAKDETRRVHLLTPNDLVRPNQ”, the entry is “failed”. “MKFLTVSDDMNFLRQVNTLVAGKGDMDSVIIGEGDAKGLGSKVLYRAKKGTPFDAVSEGILKIAGNYDYIAIGSTEVGREIAGYLSFKTGFYTATEIFSLEFNGQKAHTKRFFYGGKTVIEEESDARILTVAPGVIEAKDLGTTPEIRDLEIGQSRIKITKFV”: the protein production entry is reported as “not failed”.

Turning to “MKFLVGYSNDSSGKDALKLGVALAEMTQGKLIVCHIVAKTWHNIALAKFDEDYDQFLCDEAQKALDDAKLAVPSHIEARYIARTALSISEGLKQTAKELSVDCMVISGARIAIKGQFFSGTVADELLNQLSLPVALAPKGFAKNQGFTSPLTRLSCAVSGSDQSCNLAISAGEWAEIFNVPLRFVTFAVRDRDITPTAAGFDAENMVINEWREQIEAEYAQATQHWESDVPISLEIGDGPTWKESIQSIDWQASELLIVGTTTSGIFKQVLVGKNAEKIIRYASVPRLVLPRSTD”, the protein production result is “failed”. With “MKFRRHTKAIRSLAGSLISHASAFAPALFAAIIAAIVVWVATNWRLERSLADERSVVAGELATISSRLQTNLNSNVKLLQGLAAGIAVDPAMGQNRFSKLAAQILQPDSQLRSFAAAPDMVVQWVYPETGNEKAIGLDYRKNEKQRAAAMLARNTHNIVLTGPVELVQGGTAFVVRCPVYIDDGNSQIFWGLLSGIIDIPRLYRDSGLGSTDLEIAISTTPEPNSPKQVFFGGLETFEKKPVVASVDMTYGRWSLAALPRHGWGQNNGIGTFELYASLLALCVVAPIVWVGFLTKSRQKTIEKLRLHKSKLVRARQRLEHLSLHDALTGLPNRRFVDQMISQPPRPDPQDRLILIHIDLDRFKEINDTKGHAGGDMVLQTTASRLADLTGPNDVAARIGGDEFVFASWSTDPEPKAAELARQIVDALQQTIFIDGAGYVVGASVGVAWETESARDRDLGQLLLNADLALYEAKKAGRGRAAVFTEELRSAAIHAKELADEFNQALERDELVAFFQPQFNANTLDIAGVEALARWDHPRKGLLGPNAFLDAAEKLGRSGDMDRLILQKALFELTRWDGLGMHIPRVSVNISARRLAQANLLAELSALPAAKDRLCFELLETISFDELQPALNEVIPAIKALGIEIEIDDFGTEHASIVSLLRFEPRRLKIDREIIKPIIASPSQRRLVSSIIEIGRSQNIDIVAEGVETMEHAKILKDLGCHLLQGYALARPMSSDQLIEFCRMKGTGTAKASR”, the protein production result is listed as “failed”.
